The supplement of paper PMC11196671

Assays:
[1] = terephthalic acid (TPA) released, HPLC; higher = more TPA released; extreme values may be limits of the assay; settings: 24 h
Description: (§1)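 Purified PET hydrolases, 2.5 ug enzyme on 3.5 mg amorphous PET film (aFilm) or crystalline PET powder (cryPow) in 0.5 mL of 50 mM buffer (NaCitrate pH 4.5/5.5, NaPhosphate 6.5/7.5, glycine 8.5/9.5) at 60 or 70 C with shaking for 24 h. Total aromatic product by UV-Vis (260/280 nm, blank-subtracted, normalised per mg enzyme) and individual TPA, MHET, BHET concentrations by UHPLC-DAD at 240 nm; duplicate reactions.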

[2] = MHET released, HPLC; higher = more MHET released; extreme values may be limits of the assay; settings: 24 h
Description: as §1

[3] = BHET released, HPLC; higher = more BHET released; extreme values may be limits of the assay; settings: 24 h
Description: as §1

[4] = PET hydrolysis product formed (TPA+MHET+BHET, UV-Vis) per mg enzyme (mmol/mg enzyme); higher = more PET depolymerisation activity; extreme values may be limits of the assay; settings: 2 h
Description: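 Purified PET hydrolases (His-SUMO cleaved, E. coli C41(DE3) small-scale expression), 2.5 ug enzyme on 3.5 mg amorphous PET film (aFilm) or crystalline PET powder (cryPow) in 0.5 mL of 50 mM buffer (NaCitrate pH 4.5/5.5, NaPhosphate 6.5/7.5, glycine 8.5/9.5) at 60 or 70 C with shaking for 2 h. Soluble aromatic products (TPA+MHET+BHET) were quantified by UV-Vis at 260/280 nm, blank-subtracted against the no-enzyme control, and normalised per mg enzyme; duplicate reactions.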

ANPYERGPNPTDALLEARSGPFSVSEENVSRLSASGFGGGTIYYPRENNTYGAVAISPGYTGTEASIAWLGERIASHGFVVITIDTITTLDQPDSRAEQLNAALNHMINRASSTVRSRIDSSRLAVMGHSMGGGGSLRLASQRPDLKAAIPLTPWHLNKNWSSVTVPTLIIGADLDTIAPVATHAKPFYNSLPSSISKAYLELDGATHFAPNIPNKIIGKYSVAWLKRFVDNDTRYTQFLCPGPRDGLFGEVEEYRSTCPF [TfCut2]
Settings	BHET released, [3] [mM]	MHET released, [2] [mM]	PET hydrolysis product formed, [4]	terephthalic acid, [1] [mM]
PET substrate: aFilm, 60 °C, pH 4.5	0	0	0	0
PET substrate: aFilm, 60 °C, pH 5.5	0.00214	0.0544	0	0.0433
PET substrate: aFilm, 60 °C, pH 6.5	0.00244	0.0658	0.00338	0.0508
PET substrate: aFilm, 60 °C, pH 7.5	0.00625	0.213	0.0101	0.186
PET substrate: aFilm, 60 °C, pH 8.5	0	0.105	0.00697	0.0862
PET substrate: aFilm, 60 °C, pH 9.5	0	0.143	0.0114	0.454
PET substrate: aFilm, 70 °C, pH 4.5	0	0	0	0
PET substrate: aFilm, 70 °C, pH 5.5	0	0.00251	0	0
PET substrate: aFilm, 70 °C, pH 6.5	0	0.00766	0	0
PET substrate: aFilm, 70 °C, pH 7.5	0	0	0.00351	0.00319
PET substrate: aFilm, 70 °C, pH 8.5	0	0.0146	0.00376	0.00941
PET substrate: aFilm, 70 °C, pH 9.5	0	0	0.00877	0.03467
PET substrate: cryPow, 60 °C, pH 4.5	0	0	0	0
PET substrate: cryPow, 60 °C, pH 5.5	0	0.0126	0	0.0031
PET substrate: cryPow, 60 °C, pH 6.5	0	0.0226	0	0.00386
PET substrate: cryPow, 60 °C, pH 7.5	0.0022	0.104	0	0.0408
PET substrate: cryPow, 60 °C, pH 8.5	0	0.0471	0	0.0159
PET substrate: cryPow, 60 °C, pH 9.5	0	0.0249	0.00389	0.0959
PET substrate: cryPow, 70 °C, pH 4.5	0	0	0	0
PET substrate: cryPow, 70 °C, pH 5.5	0	0	0	0
PET substrate: cryPow, 70 °C, pH 6.5	0	0	0	0
PET substrate: cryPow, 70 °C, pH 7.5	0	0	0	0
PET substrate: cryPow, 70 °C, pH 8.5	0	0.00527	0	0
PET substrate: cryPow, 70 °C, pH 9.5	0	0	0	0.0139

QDNPYERGPDPTEDSIEAIRGPFSVATERVSSFASGFGGGTIYYPRETDEGTFGAVAVAPGFTASQGSMSWYGERVASHGFIVFTIDTNTRLDAPGQRGRQLLAALDYLVERSDRKVRERLDPNRLAVMGHSMGGGGSLEATVMRPSLKASIPLTPWHLDKTWGQVQVPTFIIGAELDTIAPVSTHAKPFYESLPSSLPKAYMELCGATHFAPNIPNTTIAKYVISWLKRFVDEDTRYSQFLCPNPTDRAICEYRSTCPY [Cut190*SS]
Settings	BHET released, [3] [mM]	MHET released, [2] [mM]	PET hydrolysis product formed, [4]	terephthalic acid, [1] [mM]
PET substrate: aFilm, 60 °C, pH 4.5	0	0	0	0
PET substrate: aFilm, 60 °C, pH 5.5	0	0.00789	0	0
PET substrate: aFilm, 60 °C, pH 6.5	0.00205	0.04	0	0.00808
PET substrate: aFilm, 60 °C, pH 7.5	0.0117	0.208	0.00672	0.0544
PET substrate: aFilm, 60 °C, pH 8.5	0	0.0945	0	0.0241
PET substrate: aFilm, 60 °C, pH 9.5	0	0.155	0.0106	0.319
PET substrate: aFilm, 70 °C, pH 4.5	0	0	0	0
PET substrate: aFilm, 70 °C, pH 5.5	0	0	0	0
PET substrate: aFilm, 70 °C, pH 6.5	0	0	0	0
PET substrate: aFilm, 70 °C, pH 7.5	0.00861	0.234	0.00376	0.142
PET substrate: aFilm, 70 °C, pH 8.5	0	0.00747	0	0
PET substrate: aFilm, 70 °C, pH 9.5	0	0.0894	0.0215	0.477
PET substrate: cryPow, 60 °C, pH 4.5	0	0	0	0
PET substrate: cryPow, 60 °C, pH 5.5	0.00623	0.0526	0	0.0115
PET substrate: cryPow, 60 °C, pH 6.5	0.00767	0.1	0.0096	0.016
PET substrate: cryPow, 60 °C, pH 7.5	0.0058	0.202	0.0258	0.0676
PET substrate: cryPow, 60 °C, pH 8.5	0	0.171	0.0105	0.04
PET substrate: cryPow, 60 °C, pH 9.5	0	0.11	0.0109	0.302
PET substrate: cryPow, 70 °C, pH 4.5	0	0	0	0
PET substrate: cryPow, 70 °C, pH 5.5	0	0.00708	0	0
PET substrate: cryPow, 70 °C, pH 6.5	0	0.0193	0	0.00353
PET substrate: cryPow, 70 °C, pH 7.5	0	0.0639	0.00904	0.0546
PET substrate: cryPow, 70 °C, pH 8.5	0	0.02402	0	0.01301
PET substrate: cryPow, 70 °C, pH 9.5	0	0.00359	0.00521	0.0846
